According to article PMC7401801:

Biological target: CRM1 (UniProt O14980)
Experiment: GFP IP of CRM1-EGFP, Flag blot
Conditions: reference: Flag-TFEB wild type; sites S142

binding against the reference: weaker
Substance: TFEB (from UniProt P19484) Flag-TFEB(S142A)
